Data taken from patent US12383631.
Like-named read-outs stand apart in the source and are kept apart here.

Legend:
[1] = molecular target: T1, IL-18 receptor (IL-18Rα/IL-18Rβ) on cells (HEK-Blue IL18R reporter cells, NK-92, KG-1) (human) (UniProt Q13478); experiment: cell-based or functional assay
T1 sequence (looked up) 1: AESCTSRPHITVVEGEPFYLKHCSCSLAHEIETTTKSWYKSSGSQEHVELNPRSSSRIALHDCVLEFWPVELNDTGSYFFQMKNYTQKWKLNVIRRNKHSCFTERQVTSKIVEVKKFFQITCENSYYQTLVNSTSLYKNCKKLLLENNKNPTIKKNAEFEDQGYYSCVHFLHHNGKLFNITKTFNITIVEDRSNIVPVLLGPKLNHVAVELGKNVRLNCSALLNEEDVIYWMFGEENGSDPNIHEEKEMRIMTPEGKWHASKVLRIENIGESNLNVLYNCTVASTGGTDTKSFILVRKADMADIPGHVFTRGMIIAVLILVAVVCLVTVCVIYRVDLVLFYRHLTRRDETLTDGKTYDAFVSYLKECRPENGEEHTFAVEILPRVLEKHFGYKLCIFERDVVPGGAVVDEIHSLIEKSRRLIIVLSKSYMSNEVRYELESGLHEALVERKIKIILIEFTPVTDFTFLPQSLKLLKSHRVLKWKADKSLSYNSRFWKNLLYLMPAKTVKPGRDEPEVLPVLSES
T1 sequence (looked up) 2: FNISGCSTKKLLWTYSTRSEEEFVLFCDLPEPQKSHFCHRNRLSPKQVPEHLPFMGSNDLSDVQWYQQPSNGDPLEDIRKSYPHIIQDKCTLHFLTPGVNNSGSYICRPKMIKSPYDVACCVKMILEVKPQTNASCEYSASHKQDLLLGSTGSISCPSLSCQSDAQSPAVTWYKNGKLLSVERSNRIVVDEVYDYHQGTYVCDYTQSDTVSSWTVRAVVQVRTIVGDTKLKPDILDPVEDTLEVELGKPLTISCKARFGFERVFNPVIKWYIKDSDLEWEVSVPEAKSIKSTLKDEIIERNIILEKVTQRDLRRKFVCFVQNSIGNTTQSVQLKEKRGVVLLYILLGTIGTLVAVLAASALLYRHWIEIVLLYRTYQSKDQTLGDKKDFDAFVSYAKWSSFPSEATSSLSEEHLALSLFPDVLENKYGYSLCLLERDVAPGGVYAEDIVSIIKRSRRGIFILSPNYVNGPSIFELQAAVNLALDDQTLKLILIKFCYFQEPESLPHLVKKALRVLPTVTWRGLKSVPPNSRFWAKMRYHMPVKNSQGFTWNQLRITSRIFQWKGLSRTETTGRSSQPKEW

[2] = molecular target: human IL-18BP-His (human) (UniProt O95998); experiment: AlphaLISA of free IL-18BP after incubation with IL-18BP-His
[3] = molecular target: recombinant Human Fc gamma RIIIA/CD16a Protein (R&D systems, 4325-FC-050) (human) (UniProt P08637); experiment: ELISA; immunocytokine coated, receptor titrated, anti-His-HRP
[4] = molecular target: human IL-18BP-His (human) (UniProt O95998); experiment: AlphaLISA of free (unbound) IL-18BP: immunocytokine titrated (x-axis) and pre-incubated with human IL-18BP-His; anti-IL-18BP acceptor beads, biotinylated anti-IL-18BP antibody, streptavidin donor beads; the signal falls as IL-18BP is bound
[5] = molecular target: human PD-1 on Jurkat T effector cells (human) (UniProt Q15116)
[6] = molecular target: recombinant Human Fc gamma RI/CD64 Protein (R&D systems, 1257-FC-050) (human) (UniProt P12314); experiment: ELISA; immunocytokine coated, receptor titrated, anti-His-HRP
[7] = molecular target: recombinant Human Fc gamma RIIA/CD32a (H167) Protein (R&D systems, 9595-CD-050) (human) (UniProt P12318); experiment: as above
[8] = molecular target: recombinant Human Fc gamma RIIB/CD32b Avi-tag Protein (R&D systems, AVI1875-050) (human) (UniProt P31994); experiment: as above
[9] = molecular target: recombinant Human Fc gamma RI/CD64 Protein (R&D systems, 1257-FC-050) (human) (UniProt P12314); experiment: ELISA: immunocytokine coated on the plate (2.5 ug/ml), His-tagged recombinant human Fc gamma RI/CD64 titrated in solution (x-axis), anti-His-HRP/TMB, 450 nm
[10] = molecular target: human PD-1 on Jurkat T effector cells (human) (UniProt Q15116); remark: listed apart in the source
[11] = molecular target: recombinant Human Fc gamma RI/CD64 Protein (R&D systems, 1257-FC-050) (human) (UniProt P12314); experiment: ELISA; antibody coated, receptor titrated, anti-His-HRP
[12] = molecular target: recombinant Human Fc gamma RIIA/CD32a (H167) Protein (R&D systems, 9595-CD-050) (human) (UniProt P12318); experiment: as above
[13] = molecular target: recombinant Human Fc gamma RIIB/CD32b Avi-tag Protein (R&D systems, AVI1875-050) (human) (UniProt P31994); experiment: as above
[14] = molecular target: recombinant Human Fc gamma RIIIA/CD16a Protein (R&D systems, 4325-FC-050) (human) (UniProt P08637); experiment: as above
[15] = molecular target: recombinant biotinylated human FcRn (human) (UniProt P55899); experiment: AlphaLISA competition at pH 6; competitor: human IgG on acceptor beads
[16] = molecular target: recombinant Human Fc gamma RI/CD64 Protein (R&D systems, 1257-FC-050) (human) (UniProt P12314); experiment: ELISA: antibody coated on the plate (2.5 ug/ml), His-tagged recombinant human Fc gamma RI/CD64 titrated in solution (x-axis), anti-His-HRP/TMB, 450 nm
[17] = molecular target: recombinant biotinylated human FcRn (human) (UniProt P55899); experiment: FcRn competition AlphaLISA at pH 6: test antibody titrated (x-axis) against human IgG-coated acceptor beads (reference IgG) for biotinylated human FcRn on streptavidin donor beads; loss of signal

Sequence of recombinant Human Fc gamma RI/CD64 Protein (R&D systems, 1257-FC-050) (human) (P12314 16-288 limits assumed): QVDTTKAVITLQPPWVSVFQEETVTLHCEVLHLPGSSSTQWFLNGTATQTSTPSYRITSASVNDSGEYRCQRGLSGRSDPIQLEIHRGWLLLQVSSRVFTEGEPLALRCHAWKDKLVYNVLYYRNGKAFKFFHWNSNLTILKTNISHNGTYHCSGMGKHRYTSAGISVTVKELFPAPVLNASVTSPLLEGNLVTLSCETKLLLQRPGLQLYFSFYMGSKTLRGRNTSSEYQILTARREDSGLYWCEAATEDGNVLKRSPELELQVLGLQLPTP
Sequence of recombinant Human Fc gamma RIIIA/CD16a Protein (R&D systems, 4325-FC-050) (human) (P08637 17-208 limits assumed): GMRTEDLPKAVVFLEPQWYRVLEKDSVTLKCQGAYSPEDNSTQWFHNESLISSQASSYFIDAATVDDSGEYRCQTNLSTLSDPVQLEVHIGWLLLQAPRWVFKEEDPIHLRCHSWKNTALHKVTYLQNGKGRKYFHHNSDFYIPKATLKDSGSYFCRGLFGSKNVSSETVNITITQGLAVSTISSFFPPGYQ
Sequence of human PD-1 on Jurkat T effector cells (human) (Q15116 25-288 limits assumed): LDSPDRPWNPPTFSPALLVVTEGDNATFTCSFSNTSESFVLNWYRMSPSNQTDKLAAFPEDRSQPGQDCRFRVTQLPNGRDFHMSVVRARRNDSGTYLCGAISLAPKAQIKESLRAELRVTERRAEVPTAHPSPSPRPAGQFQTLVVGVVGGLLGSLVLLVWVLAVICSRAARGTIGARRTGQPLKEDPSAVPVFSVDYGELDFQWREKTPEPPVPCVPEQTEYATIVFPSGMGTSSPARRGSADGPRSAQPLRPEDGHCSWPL
Sequence of recombinant Human Fc gamma RIIA/CD32a (H167) Protein (R&D systems, 9595-CD-050) (human) (P12318 36-218 limits assumed): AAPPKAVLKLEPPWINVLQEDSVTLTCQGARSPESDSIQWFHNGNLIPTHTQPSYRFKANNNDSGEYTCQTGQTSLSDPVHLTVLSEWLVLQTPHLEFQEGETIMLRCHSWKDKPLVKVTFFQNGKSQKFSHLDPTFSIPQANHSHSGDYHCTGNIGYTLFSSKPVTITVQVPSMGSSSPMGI
Sequence of human IL-18BP-His (human) (O95998 31-194 limits assumed): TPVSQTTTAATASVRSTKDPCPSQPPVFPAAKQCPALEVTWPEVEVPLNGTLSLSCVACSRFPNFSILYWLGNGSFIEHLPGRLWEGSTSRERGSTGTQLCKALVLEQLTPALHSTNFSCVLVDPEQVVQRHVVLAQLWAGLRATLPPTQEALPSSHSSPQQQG
Sequence of recombinant Human Fc gamma RIIB/CD32b Avi-tag Protein (R&D systems, AVI1875-050) (human) (P31994 46-217 limits assumed): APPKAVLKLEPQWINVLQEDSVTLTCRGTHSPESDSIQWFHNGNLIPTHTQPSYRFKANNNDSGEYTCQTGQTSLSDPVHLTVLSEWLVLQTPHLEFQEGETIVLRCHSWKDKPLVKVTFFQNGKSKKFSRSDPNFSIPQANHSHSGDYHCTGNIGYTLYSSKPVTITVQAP
Sequence of LZM-009 (antibody) (VH): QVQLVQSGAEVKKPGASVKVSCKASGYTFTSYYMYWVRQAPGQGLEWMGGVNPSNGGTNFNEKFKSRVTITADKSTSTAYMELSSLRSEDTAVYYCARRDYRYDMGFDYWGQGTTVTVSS
Sequence of LZM-009 (antibody) (VL): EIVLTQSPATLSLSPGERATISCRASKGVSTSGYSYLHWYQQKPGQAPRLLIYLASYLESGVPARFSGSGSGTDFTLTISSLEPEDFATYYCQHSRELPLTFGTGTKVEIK

Row | EC50, IFNγ secretion, NK92 cells [1] | EC50, IFNγ secretion, PD-1 positive KG-1 cells [1] | EC50, IFNγ secretion, parental KG-1 cells [1] | Kd [2] | Kd [3] | IC50 (read off the curve) [4] | EC50 (read off the curve), NFAT-RE luciferase signal (PD-1/PD-L1 Blockade Bioassay) [5] | Kd [6] | Kd [7] | Kd [8] | EC50 (read off the curve) [9] | EC50 (read off the curve), NFAT-RE luciferase signal (PD-1/PD-L1 Blockade Bioassay) [10] | Kd [11] | Kd [12] | Kd [13] | Kd [14] | Kd [15] | EC50 (read off the curve) [16] | IC50 (read off the curve) [17] | Substance
1 | 0.027 nM | 0.0096 nM | 0.0166 nM | 10.5 nM | 3300 nM | 10 nM | – | – | – | – | – | – | – | – | – | – | – | – | – | Composition C (Trastuzumab/Herceptin conjugated to IL-18 polypeptide of SEQ ID NO: 30)
2 | 0.073 nM | 0.0012 nM | 0.011 nM | – | 598 nM | – | 3 nM | 0.25 nM | 1890 nM | 436 nM | 0.3 nM | – | – | – | – | – | – | – | – | Composition A (LZM-009 conjugated to IL-18 polypeptide of SEQ ID NO: 30) (from UniProt Q14116 37-193)
3 | – | – | – | – | – | – | – | – | – | – | – | 2 nM | 0.315 nM | 1350 nM | 2630 nM | 1710 nM | 6 nM | 0.2 nM | 5 nM | LZM-009 (antibody)
